± gives the uncertainty stated by the source.
Experiment: self-splicing fitness, log relative to wild type (ln ratio); higher = more splicing; Tetrahymena group I intron in knt gene, E. coli kanamycin selection, DiMSum; sequences stand for … in CUCUCU…GGAGGGAAAAGUUAUCAGGCAUGCACCUGGUAGCUAGUCUUUAAACCAAUAGAUUGCAUCGGUUUAAAAGGCAAGACCGUCAAAUUGCGGGAAAGGGGUCAACAGCCGUUCAGUACCAAGUCUCAGGGGAAACUUUGAGAUGGCCUUGCAAAGGGUAUGGUAAUAAGCUGACGGACAUGGUCCUAACCACGCAGCCAAGUCCUAAGUCAACAGAUCUUCUGUUGAUAUGGAUGCAGUUCACAGACUAAAUGUCGGUCGGGGAAGAUGUAUUCUUCUCAUAAGAUAUAGUCGGACCUCUCCUUAAUGGGAGCUAGCGGAUGAAGUGAUGCAACACUGGAGCCGCUGGGAACUAAUUUGUAUGCGAAAGUAUAUUGAUUAGUUUUGGAGUACUCGUGGUCG
Summary of the method: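 The eight P1ex-region nucleotides of an intron in the knt kanamycin-resistance gene on pET-22b(+) were all randomised and the library put into E. coli BL21(DE3). Six replicate transformations were grown overnight at 37°C or 30°C on LB agar with or without 25 μg/mL kanamycin, together with 100 μg/mL carbenicillin, 50 μM IPTG and 0.2% rhamnose. Colonies were pooled and amplicon-sequenced on an Illumina HiSeq 2500. Fitness from DiMSum is the error-weighted combination of wild-type-normalised replicate fold changes, kanamycin over none.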

| Sequence | self-splicing fitness (ln) (30 °C) | self-splicing fitness (ln) (37 °C) |
| --- | --- | --- |
| UGUUAGCAAUAUUACGCUUU | -2.85 ± 0.2 | -1.32 ± 0.14 |
| UGUUAGCAAUAUUACGGAUA | -1.36 ± 0.13 | -1.45 ± 0.12 |
| UGUUAGCAAUAUUACGGAUU | -2.53 ± 0.16 | -0.414 ± 0.13 |
| UGUUAGCAAUAUUACGGCCG | 0.71 ± 0.11 | 0.567 ± 0.17 |
| UGUUAGCAAUAUUACGGCCU | -0.213 ± 0.27 | 0.286 ± 0.25 |
| UGUUAGCAAUAUUACGGGGU | -2.47 ± 0.26 | – |
| UGUUAGCAAUAUUACGGUGG | -1.95 ± 0.16 | -0.147 ± 0.16 |
| UGUUAGCAAUAUUACGGUGU | -2.57 ± 0.17 | -1.92 ± 0.18 |
| UGUUAGCAAUAUUACGUGAC | -2.93 ± 0.31 | -2.01 ± 0.29 |
| UGUUAGCAAUAUUACGUGAG | -1.02 ± 0.051 | -0.331 ± 0.065 |
| UGUUAGCAAUAUUACGUGAU | -1.77 ± 0.14 | -1.96 ± 0.25 |
| UUAAAGCAAUAUUACGAAAU | -3.49 ± 0.3 | -2.12 ± 0.24 |
| UUAAAGCAAUAUUACGAAGU | -3.67 ± 0.44 | -2.47 ± 0.39 |
| UUAAAGCAAUAUUACGAAUA | -1.71 ± 0.088 | -0.164 ± 0.12 |
| UUAAAGCAAUAUUACGACGC | -0.776 ± 0.077 | 0.177 ± 0.11 |
| UUAAAGCAAUAUUACGAUCA | 0.0315 ± 0.083 | 0.412 ± 0.097 |
| UUAAAGCAAUAUUACGAUGU | -1.91 ± 0.1 | -0.671 ± 0.15 |
| UUAAAGCAAUAUUACGAUUU | -0.89 ± 0.063 | 0.0458 ± 0.099 |
| UUAAAGCAAUAUUACGCCAU | -2.96 ± 0.17 | -1.14 ± 0.15 |
| UUAAAGCAAUAUUACGCCGA | -0.193 ± 0.12 | 0.491 ± 0.15 |
| UUAAAGCAAUAUUACGCCUA | 0.0988 ± 0.091 | 0.8 ± 0.14 |
| UUAAAGCAAUAUUACGCCUU | -1.96 ± 0.18 | -1.28 ± 0.19 |
| UUAAAGCAAUAUUACGCGCA | -0.137 ± 0.072 | -0.0874 ± 0.1 |
| UUAAAGCAAUAUUACGCUCA | 0.0308 ± 0.097 | 0.489 ± 0.14 |
| UUAAAGCAAUAUUACGCUGA | -0.633 ± 0.098 | -0.46 ± 0.14 |

| Sequence | self-splicing fitness (ln) (30 °C) | self-splicing fitness (ln) (37 °C) |
| --- | --- | --- |
| UUAAAGCAAUAUUACGCUGG | -0.4 ± 0.11 | -0.152 ± 0.12 |
| UUAAAGCAAUAUUACGGAAG | -1.67 ± 0.087 | -0.452 ± 0.11 |
| UUAAAGCAAUAUUACGGACU | -0.204 ± 0.096 | -0.0989 ± 0.11 |
| UUAAAGCAAUAUUACGGAGG | -1.34 ± 0.12 | -1.27 ± 0.17 |
| UUAAAGCAAUAUUACGGAUG | -0.473 ± 0.074 | -0.418 ± 0.1 |
| UUAAAGCAAUAUUACGGCAG | 0.129 ± 0.086 | 0.214 ± 0.11 |
| UUAAAGCAAUAUUACGGCCU | -0.459 ± 0.12 | 0.567 ± 0.16 |
| UUAAAGCAAUAUUACGGGUC | -3.44 ± 0.22 | -2.48 ± 0.24 |
| UUAAAGCAAUAUUACGGUAG | -0.312 ± 0.076 | 0.29 ± 0.11 |
| UUAAAGCAAUAUUACGGUGU | -2.73 ± 0.11 | -1.29 ± 0.1 |
| UUAAAGCAAUAUUACGGUUU | -2.12 ± 0.075 | -1.22 ± 0.097 |
| UUAAAGCAAUAUUACGUGAC | -1.93 ± 0.15 | -1.91 ± 0.18 |
| UUAAAGCAAUAUUACGUGAG | -0.984 ± 0.063 | -0.201 ± 0.1 |
| UUAAAGCAAUAUUACGUGCC | -0.9 ± 0.11 | -0.509 ± 0.16 |
| UUACAGCAAUAUUACGAAAC | -2.85 ± 0.33 | -2.49 ± 0.41 |
| UUACAGCAAUAUUACGAACC | -1.61 ± 0.4 | – |
| UUACAGCAAUAUUACGAAUA | -2.6 ± 0.3 | -1.03 ± 0.2 |
| UUACAGCAAUAUUACGACCG | -0.642 ± 0.091 | -0.0873 ± 0.13 |
| UUACAGCAAUAUUACGAGCC | -2.86 ± 0.44 | -1.13 ± 0.31 |
| UUACAGCAAUAUUACGAUGC | -3.18 ± 0.27 | -2.95 ± 0.36 |
| UUACAGCAAUAUUACGAUGU | -4.69 ± 0.39 | -2.86 ± 0.23 |
| UUACAGCAAUAUUACGCAGG | -1.79 ± 0.14 | -1.44 ± 0.14 |
| UUACAGCAAUAUUACGCAGU | -4.23 ± 0.31 | -2.55 ± 0.28 |
| UUACAGCAAUAUUACGCCAC | – | -2.7 ± 0.43 |
| UUACAGCAAUAUUACGCCAG | -1.74 ± 0.15 | -1.05 ± 0.21 |

| Sequence | self-splicing fitness (ln) (30 °C) | self-splicing fitness (ln) (37 °C) |
| --- | --- | --- |
| UUACAGCAAUAUUACGCCCA | -1.62 ± 0.32 | -0.254 ± 0.3 |
| UUACAGCAAUAUUACGCCGG | -0.726 ± 0.094 | -0.416 ± 0.13 |
| UUACAGCAAUAUUACGCGGG | -2.33 ± 0.14 | -0.688 ± 0.12 |
| UUACAGCAAUAUUACGCUCC | -1.45 ± 0.24 | -1.3 ± 0.24 |
| UUACAGCAAUAUUACGCUCU | -1.01 ± 0.074 | -0.47 ± 0.087 |
| UUACAGCAAUAUUACGCUGU | -3.49 ± 0.27 | -2.37 ± 0.34 |
| UUACAGCAAUAUUACGCUUU | -3.28 ± 0.25 | -2.08 ± 0.18 |
| UUACAGCAAUAUUACGGAUG | -2.18 ± 0.1 | -0.325 ± 0.1 |
| UUACAGCAAUAUUACGGCGG | -0.579 ± 0.087 | 0.426 ± 0.13 |
| UUACAGCAAUAUUACGGGUU | -3.73 ± 0.12 | -2.34 ± 0.12 |
| UUACAGCAAUAUUACGGUAA | -2.33 ± 0.2 | -1.68 ± 0.17 |
| UUACAGCAAUAUUACGGUCC | -1.95 ± 0.16 | -1.03 ± 0.16 |
| UUACAGCAAUAUUACGUAGU | -2.7 ± 0.15 | -3.5 ± 0.33 |
| UUACAGCAAUAUUACGUAUA | -1.59 ± 0.11 | -0.688 ± 0.14 |
| UUACAGCAAUAUUACGUCGU | -3.81 ± 0.16 | -2.26 ± 0.14 |
| UUACAGCAAUAUUACGUUAC | -3.56 ± 0.28 | -3.03 ± 0.27 |
| UUACAGCAAUAUUACGUUAG | -0.713 ± 0.086 | 0.208 ± 0.12 |
| UUACAGCAAUAUUACGUUGA | -1.57 ± 0.1 | -0.574 ± 0.1 |
| UUACAGCAAUAUUACGUUUC | -3.05 ± 0.17 | -2.53 ± 0.25 |
| UUAGAGCAAUAUUACGAAAG | -2.9 ± 0.4 | -0.494 ± 0.35 |
| UUAGAGCAAUAUUACGAACA | -2.48 ± 0.19 | -0.84 ± 0.19 |
| UUAGAGCAAUAUUACGACGA | 0.428 ± 0.12 | 0.651 ± 0.15 |
| UUAGAGCAAUAUUACGAGGG | – | -2.64 ± 0.44 |
| UUAGAGCAAUAUUACGAUCA | -1.52 ± 0.16 | -0.808 ± 0.17 |
| UUAGAGCAAUAUUACGAUCU | -2.45 ± 0.24 | -3.11 ± 0.3 |

| Sequence | self-splicing fitness (ln) (30 °C) | self-splicing fitness (ln) (37 °C) |
| --- | --- | --- |
| UUAGAGCAAUAUUACGCAAU | -2.21 ± 0.2 | -1.52 ± 0.41 |
| UUAGAGCAAUAUUACGCCGA | -0.286 ± 0.14 | 0.255 ± 0.18 |
| UUAGAGCAAUAUUACGCCUG | -0.457 ± 0.11 | 0.235 ± 0.18 |
| UUAGAGCAAUAUUACGCGAG | -0.443 ± 0.084 | -0.0681 ± 0.094 |
| UUAGAGCAAUAUUACGGACA | -2.08 ± 0.13 | -0.655 ± 0.16 |
| UUAGAGCAAUAUUACGGAUC | – | -1.56 ± 0.4 |
| UUAGAGCAAUAUUACGGUAA | -1.34 ± 0.086 | -0.0767 ± 0.11 |
| UUAGAGCAAUAUUACGGUAG | -1.27 ± 0.12 | -0.297 ± 0.14 |
| UUAGAGCAAUAUUACGGUGG | -1.95 ± 0.12 | -0.679 ± 0.13 |
| UUAGAGCAAUAUUACGUACC | – | -0.711 ± 0.48 |
| UUAGAGCAAUAUUACGUGAG | -1.88 ± 0.083 | -0.875 ± 0.13 |
| UUAUAGCAAUAUUACGACAU | -2.471 ± 0.021 | -1.55 ± 0.036 |
| UUAUAGCAAUAUUACGACUG | -1.05 ± 0.14 | -0.662 ± 0.15 |
| UUAUAGCAAUAUUACGAUCC | – | -2.87 ± 0.26 |
| UUAUAGCAAUAUUACGAUUG | -1.01 ± 0.13 | -0.505 ± 0.2 |
| UUAUAGCAAUAUUACGCGUG | -0.968 ± 0.11 | -0.618 ± 0.13 |
| UUAUAGCAAUAUUACGCUAC | – | -1.33 ± 0.45 |
| UUAUAGCAAUAUUACGCUCC | -2.11 ± 0.24 | 0.501 ± 0.45 |
| UUAUAGCAAUAUUACGGCUU | -1.99 ± 0.17 | -0.583 ± 0.18 |
| UUAUAGCAAUAUUACGGUGU | -3.63 ± 0.31 | -2.23 ± 0.3 |
| UUAUAGCAAUAUUACGUGCC | -2.08 ± 0.27 | -0.756 ± 0.35 |
| UUAUAGCAAUAUUACGUUAA | -2.07 ± 0.29 | -1.61 ± 0.22 |
| UUAUAGCAAUAUUACGUUAU | – | -2.31 ± 0.34 |
